# Source: patent US11708423B2, “Chimeric engulfment receptor molecules and methods of use” (CERO THERAPEUTICS, INC., priority 2017, dated 2023)
# Entries after “also recorded” stand apart in the source; their conditions may differ.
# B1: CER123: Tim4 binding and transmembrane domains, TLR2 primary and TRAF6 secondary signaling domains; SEQ ID NO:150 (protein)
# chain: MSKGLLLLWLVTELWWLYLTPAASEDTIIGFLGQPVTLPCHYLSWSQSRNSMCWGKGSCPNSKCNAELLRTDGTRIISRKSTKYTLLGKVQFGEVSLTISNTNRGDSGVYCCRIEVPGWFNDVKKNVRLELRRATTTKKPTTTTRPTTTPYVTTTTPELLPTTVMTTSVLPTTTPPQTLATTAFSTAVTTCPSTTPGSFSQETTKGSAFTTESETLPASNHSQRSMMTISTDIAVLRPTGSNPGILPSTSQLTTQKTTLTTSESLQKTTKSHQINSRQTILIIACCVGFVLMVLLFLAFLHRFHGLWYMKMMWAWLQAKRKPRKAPSRNICYDAFVSYSERDAYWVENLMVQELENFNPPFKLCLHKRDFIPGKWIIDNIIDSIEKSHKTVFVLSENFVKSEWCKYELDFSHFRLFDENNDAAILILLEPIEKKAIPQRFCKLRKIMNTKTYLEWPMDEAQREGFWVNLRAAIKSMSLLNCENSCGSSQSESDCCVAMASSCSAVTKDDSVGGTASTGNLSSSFMEEIQGYDVEFDPPLESKYECPICLMALREAVQTPCGHRFCKACIIKSIRDAGHKCPVDNEILLENQLFPDNFAKREILSLMVKCPNEGCLHKMELRHLEDHQAHCEFALMDCPQCQRPFQKFHINIHILKDCPRRQVSCDNCAASMAFEDKEIHDQNCPLANVICEYCNTILIREQMPNHYDLDCPTAPIPCTFSTFGCHEKMQRNHLARHLQENTQSHMRMLA
# modifications: CER123 protein
# Experiments:
# Type in all cases: cell-based
# [1] = system: HCC159 lung adenocarcinoma cells; experiment: MTT viability of HCC159 cells co-cultured with CER T cells and Osimeritinib
# Method: HCC159 lung adenocarcinoma cells harboring an EGFR mutation were co-cultured with CER123- or CER126-expressing CD4+ T cells with increasing concentrations of Osimeritinib (0.1 nM, 1 nM, or 5 nM). Mock transduced (vector only) T cells were used as control. After 48 hours of co-culture at effector: target cell ratios at 1:1, 2:1 or 5:1 in the presence of drug, T cells were washed away, and the number of viable HCC159 cells was quantified using a calorimetric MTT assay. Cell viability experiments were performed in triplicates and presented as % of control with (FIG. 48A).
# [2] = system: H1975 lung adenocarcinoma cells; experiment: MTT viability of H1975 cells co-cultured with CER T cells and Osimeritinib; settings: Osimeritinib 250, 500, 1000 nM; CD4+ T cells, E:T 1:1, 2:1, 5:1; 48 hours
# Description: H1975 lung adenocarcinoma cells harboring an EGFR mutation were co-cultured with CER123- or CER126-modified or Mock-transduced (vector only) CD4+ T cells with increasing concentrations of Osimeritinib. CER123 has a polypeptide sequence as set forth in SEQ ID NO:150 and comprises a Tim4 binding domain, Tim4 transmembrane domain, and an engulfment signaling domain comprising a primary engulfment signaling domain comprising a TLR2 signaling domain and a secondary engulfment signaling domain comprising a TRAF6 signaling domain. CER126 has a polypeptide sequence as set forth in SEQ ID NO:174 and comprises a Tim4 binding domain, Tim4 transmembrane domain, and an engulfment signaling domain comprising a primary engulfment signaling domain comprising a TLR2 signaling domain and a secondary engulfment signaling domain comprising a TRAF2 signaling domain. CD4 T cells were transduced with a lentiviral vector comprising CER123 or CER126 nucleic acid and truncated EGFR (transduction marker) nucleic acid. Assays were performed using CER modified T cells purified by FACS using an EGFR specific antibody 7 days after activation using CD3 & CD28 microbeads. CER modified T cells and H1975 cells were co-cultured at effector:target cell ratio (E:T) of 1:1, 2:1, or 5:1. After 48 hours of co-culture in the presence of Osimeritinib (0, 250 nM, 500 nM, or 1000 nM), T cells were washed away, and the number of viable H1975 cells were quantified using a calorimetric MTT assay. Cell viability experiments were performed in triplicate and presented as % of control (FIG. 45A).
# ALK+A549 cells = experiment: LDH cytotoxicity assay, A549 ALK+ cells, 18 hours co-culture; settings: Crizotinib or Alectinib 0, 2500, 3700 nM; E:T 2:1 or 5:1; 18 hours
# Method: An ELM4-ALK translocation was introduced into A549 cells. […] Assays were performed with purified tEGFR^+ (transduction marker), CER-expressing T cells 7 days after activation using CD3 & CD28 microbeads at effector: target cell ratios of 2:1 or 5:1. Mock T cells were transduced with vector alone and used as control. After 18 hours of co-culture, bulk supernatants were evaluated using a LDH cytoxicity assay indicating cell killing (FIGS. 65A-B).
# [3] = system: H1975 lung adenocarcinoma cells; experiment: LDH assay, H1975 cells, 48 hours co-culture with 1 μM Osimeritinib; settings: E:T 1:1, 48 hours, CD4+ T cells
# Outline: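 H1975 EGFR-mutant cells were co-cultured 48 h with CER-expressing or mock-transduced CD4+ T cells at 1:1 effector:target, plus 1 μM osimertinib. After T cells were washed away, viable H1975 cells were quantified by colorimetric LDH assay in triplicate, expressed as % of control.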
molecule,measurement,setting,value
B1,bright field images of HCC159 co-culture,"[1]; 1 nM Osimeritinib, vs control T cells",loss of HCC159 cells
same,growth/viability of HCC159 cells (MTT),"[1]; Osimeritinib 0.1, 1, 5 nM, E:T 1:1, 2:1, 5:1, 48 hours",dose-dependent target cell killing responses; also recorded: synergistically suppressed
same,growth/viability of H1975 cells (MTT),[2],synergistically suppressed
same,cell killing of A549 ALK+ cells (LDH),ALK+A549 cells,dose-dependent inducible cytokine secretion and cell killing responses
same,killing of H1975 cells (LDH),[3],synergistic killing of H1975 lung adenocarcinoma cells upon EGFR inhibition
